Values of other authors, collected in patent EP0314042A2, “Novel copolymers and superoxide dismutase modified with said copolymers” (KURARAY CO., LTD., priority 1987, dated 1989).

Assays:
[1] = as compared with SOD; cited from earlier work
[2] = result in words, relative to SOD; cited from earlier work

Substance | enzymatic activity of SOD [1] | plasma half-life [2]
inulin-modified SOD: SOD modified with inulin (Japanese Kokai Tokkyo Koho No. 58-32826) | reduced | much prolonged
Ficoll-modified SOD: SOD converted to a giant molecule through modification with Ficoll | markedly decreased | –
polyethylene glycol-modified-SOD: SOD converted to a giant molecule through modification with polyethylene glycol | markedly decreased | –
